In the domain aggregation screens of Martell et al. (2025):

Assay: soluble fraction after stress (log2 fold change); higher = more stays soluble; pooled small domains, quantitative proteomics
Details: stress: pH 4
Summary of the method: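 Values are log2 fold changes, and higher ones mean more of the domain stayed soluble. Each fold change reflects the soluble amount of a domain after acid stress and is taken as a measure of aggregation propensity. The stress was pH 4, applied to pooled custom libraries of small protein domains analysed by high-throughput quantitative proteomics.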

Row | Sequence | soluble fraction (log2)
1 | HMTDVIADMLTRIRNAASSKHQTVDIPSSNLKKEIAKILLEEGYIRDFIEIDDKKQGIIRITL | -0.617
2 | HMAVIILDEPTLGLDPAVRISLWQAIQSARDSTMSAFLITTHYIKEVADYLSAVKILDHGREVASGNPSAL | -0.905
3 | HMSGEMGIIVAKRLPIRSEPDELATRAFVLKAGTRVKIVKHLNGWLEIVHDGKAGYVQDLEVYVRVIG | -0.445
4 | HMGTAESIRLFLSSGLIKGVGEALAGRIVDTFGTDTFDIIENHPELLAGVKGISHRLAMSIYESFSQHIGV | -0.951
5 | HMSKQQFLDELAARLREEGAELLVAENLNFYRSYIEEEVAKGRSEEEVLAELGNPALIARSILDAAGF | -1.15
6 | HMYPMQNYSTIIGVIELRQQSVGYATTQKRYGIGSSTVTLIMKRFKELGLTLEELRAMPPKAVEVAFYPPE | 0.246
7 | HMKNMSLGERIKEQRKSSGLSQEKVAEFVGVSRQAVTKWETGQSAPSTENLFKLAEIFGTTVDILLA | -0.0228
8 | HMSISEFNYTEFNGLVEKGQVSEVTISGREIEGRLTSGESFKTYSPETDNSALVGDLLKNNVKINGKP | -0.158
9 | HMAAGADEATTVPNVSGDTLNQAIKSLKAEGLGYMLSGAGARVRDQMPEPGAEMTKGSVVMLYMDGDAEVD | 0.399
10 | HMGSEGVKVEDTIGMSEAEATATLGKSGFVVNKTESHDPYIKAGNVITQSPAAGSKAPKGTTVTLTISLGP | 0.423
11 | HMSVNAPMPGKIVNVLVSEGQKVNSGDVLLILEAMKMQNEIAATQAGTVKAINVAAGQSVKVGDALVN | -0.147
12 | HMLQLDATDRALIVATQGGLPLVPRPYQVVGEQLGISGEEVVARLRALLDAGVIRRIGAVPN | 0.327
13 | HMGDYDHYVVKVEDTLLNWLVTNVTTMSRNKLKDILAGQGIKVNGKITTKYDYPLTPGMKIAISKTKR | -0.351
14 | HMSKSIELMNEIKKYIEEYYLQYRQSPSTTKIAEAVGIARGTAYKYLVEMSERNMIEYDGQEISTEVTRKY | -0.381
15 | HMKTYGGDNSLHKFDEHHSWMVAKYGPVVKQTINGETKWLKVKKDLTLAQVKKMKLEDVLLPKSQT | 0.245
16 | HMEEIIPIRFLRHRVKRRETIFGLTQKYNITEDQLKRYNTRLYSEALERKMVLQIPVFPEVDED | -0.667
17 | HMLTGADAEKATAAAQAEFPGGTVLRVETDADGTYEAHVRKADGTEVEVKMDKDFKVTSVEE | -0.0221
18 | HMEVKSGFVHLTGAVKSPGVYPISIGMRLFEVIALAGGFTAKADRESVNLARTVTDGEQIIVSGSG | -0.778
19 | HMQPDFLDAKASLALLGVRPQTLYAYVSRGAIRSVPQPGTKAHLYSRSDIERVMARAAARAG | -0.019

Row | Sequence | soluble fraction (log2)
20 | HMTDKLIAYSVDGILNVITSEAQSVKVYAIDGRLVRILQLGEGRNEVSGLAKGIYIVDNRKVAV | 0.0217
21 | HMSNATELVYDDGRKLLISYETLVGGYHPDLGWIRTAKTYSISTDKHIRNYFNNVTNPRVVGEDILETLKI | -0.237
22 | HMDDGNHTEYIVLEKAKFYDEAGEYEEGRDLVLSFDKYQDNWKLVYTLGVFNKKLNNLEEARKYYKQALE | -0.846
23 | HMSKLQKTKYAGVYFTEDTQTRVKTYVARIVLAGIIDTEVVVGHSNDQHRTNAAIAYQRRLELIQEAKN | -0.372
24 | HMPPNPELGKKLLKLRKEFKMTQDDVANILGMSRTSFSKYENGIANPPLQVMRKLASIYNVGLEYLI | -0.0729
25 | HMQKNKSVLFKDIVIAFNQNPKKLFNYKQLAADLDIHSEAERMLISQLLNDLKDQNFLEEVERGKYKLKL | -0.479
26 | HMDPKISWESDEKLSANIGHYENSIKPLMGNKYLIELSQLKDKIESHPWVARATIKRIFWNKIHIQLESHD | 0.108
27 | HMDSINGEASISRELHGTRFDQAAAILFPEFSRSRLQAWIGAGALTLDGQTARAKDKVTQGQHLVLAAAVE | -0.536
28 | HMETMSYAEFNAIRIGKAKLMLADPSLKIWEISEAVGYTDTAHFARTFKKLEGMSANEYRNSL | -0.713
29 | HMHTSEDLEKLLTRYFQSHESINRQQFEQLSGFTRTTASRRLKALVEAGKLKNIGLHHFPVYKPTEGNF | 0.134
30 | HMPPDLSEAIQKRIEGKTDEALEILRKLYNEYPESTEIITMLGRTLLDAEEYALAAFRLEQALDLGG | -1.22
31 | HMKDGMRVYITYHDSEEEPEKPIGDGTTKGWHTNSTASVVWISQKVAESADLGIWGDPIRIKGEA | -0.217
32 | HMKREELTQQTKQNLREAFWSLYIQKPIEKITVKEITDIAGYNRGTFYLYYKDTYDLLAKIE | -0.646
33 | HMPQPEIEIAAVVPYSAGALLSRIHDDGELLAPVEYRGEGVFVHARVPADIEAAMRRGGMLSPAET | -0.164
34 | HMQPQIDFEIDVEVRASSLRIVAAPNSDVLVATVGRGEHVVQLTYPKDGWVMIRTADDRVGFVPESLLL | -0.254
35 | HMSNDRSYLARLQDYYAEHRALPSYASIGALLGLRSKSSVAALVARLKLAGFVESTPDRRLAPTRRFF | 0.344
36 | HMSEGEMSQWIIAQAKQQGGGFQPDAARLLGSYVGNNTLRARQEIDKLLTYVGPSRVVTPEDVVLLTA | -0.0309
37 | HMQISDAGALLDAVRRVLAENPAQVEQFRAGKEKVMGFLVGQVMRATGGKANPQMLNDVLREELS | 0.198
